Data taken from the MegaScale stability set (Tsuboyama et al. 2023).

B1: r11_951_TrROS_Hall (parent)
chain: KKKYVIKVYFEDTGKEVEIEAESKEEALEAAKRLAEELGLKIKKVEIYP

Variants of: B1
Assay: folding stability dG (cDNA display proteolysis); higher = more stable
Details: PBS, room temperature

| Variant | folding stability dG [kcal/mol] |
| --- | --- |
| E26S | 4.39 |
| E26P | 3.07 |
| E26H | 4.5 |
| E26L | 4.46 |
| E26F | 4.83 |
| L38E | 3.89 |
| L38M | 4.56 |
| L38D | 3.39 |
| L38Q | 4.21 |
| L38I | 4.29 |
| T13W | 4.28 |
| T13R | 4.66 |
| T13P | 4.48 |
| T13M | 4.35 |
| T13V | 4.4 |
| K24H | 4.45 |
| K24G | 4.41 |
| K24P | 4.19 |
| K2L | 4.61 |
| K2G | 4.29 |
| E16W | 4.48 |
| E16T | 4.45 |
| E16G | 4.35 |
| L34N | 3.66 |

| Variant | folding stability dG [kcal/mol] |
| --- | --- |
| L34H | 4.22 |
| L34P | 1.34 |
| I42V | 4.17 |
| I42K | 2.18 |
| V45N | 3.32 |
| V45Y | 4.45 |
| V45I | 3.98 |
| V45W | 4.59 |
| V45K | 3.16 |
| V45G | 2.79 |
| K44C | 4.11 |
| A31G | 4.15 |
| A31D | 0.894 |
| A31S | 4.2 |
| A31Y | 4.33 |
| P49I | 4.72 |
| P49E | 4.66 |
| P49L | 4.62 |
| P49R | 4.5 |
| I19M | 4.5 |
| A21V | 4.45 |
| A21Q | 3.77 |
| A21L | 4.24 |
| A21E | 4.25 |

| Variant | folding stability dG [kcal/mol] |
| --- | --- |
| A21P | 2.03 |
| E20N | 4.22 |
| E20S | 4.22 |
| L40S | 3.9 |
| L40E | 3.99 |
| L40Y | 4.88 |
| L40I | 3.96 |
| L40M | 4.31 |
| G14V | 4.62 |
| G14W | 4.61 |
| G14L | 4.25 |
| E37M | 4.67 |
| E37I | 4.61 |
| Y4K | 2.9 |
| Y4R | 2.98 |
| E22R | 4.18 |
| E22F | 4.46 |
| E22L | 4.26 |
| Y9F | 4.25 |
| Y9C | 3.95 |
| Y9S | 4.16 |
| Y9D | 3.41 |
| A27T | 3.58 |
| A27G | 4.68 |

| Variant | folding stability dG [kcal/mol] |
| --- | --- |
| A27P | 2.74 |
| V8S | 1.87 |
| V8N | 1.36 |
| V8F | 4.61 |
| V8R | 0.173 |
| E29P | 3.83 |
| E29D | 4.44 |
| V5Q | 4.27 |
| V5M | 4.31 |
| L28R | 4.23 |
| L28Y | 4.57 |
| L28Q | 4.31 |
| L28K | 4.28 |
| L28E | 4.28 |
| E36H | 4.56 |
| E36K | 4.54 |
| E18Y | 4.12 |
| E18D | 4.45 |
| E18P | 3.84 |
| K15I | 4.22 |
| K15A | 4.22 |
| K15W | 4.23 |
| K15N | 4.63 |
| K43D | 4.29 |

| Variant | folding stability dG [kcal/mol] |
| --- | --- |
| K43N | 4.29 |
| K43M | 4.44 |
| K43A | 4.4 |
| K43R | 4.64 |
| K7A | 3.95 |
| K7Q | 3.75 |
| E46G | 3.71 |
| Y48D | 4.13 |
| Y48T | 4.52 |
| Y48Q | 4.37 |
| Y48L | 4.44 |
| E25L | 4.18 |
| E25S | 4.12 |
| E25K | 4.22 |
| E25A | 4.4 |
| R33P | 2.02 |
| R33M | 4.32 |
| R33D | 4.09 |
| R33Q | 4.02 |
| V17C | 4.25 |
| A35S | 4.35 |
| A35F | 4.13 |
| A35V | 4.06 |
| A35H | 3.63 |

| Variant | folding stability dG [kcal/mol] |
| --- | --- |
| S23H | 4.08 |
| S23I | 4 |
| S23N | 4.38 |
| S23C | 4.05 |
| K3C | 4.24 |
| K3E | 3.9 |
| K3V | 4.24 |
| K3F | 4.64 |
| I47H | 4.35 |
| I47F | 4.32 |
| G39S | 4.26 |
| G39Y | 3.82 |
| A30M | 4.47 |
| A30Q | 4.44 |
| A30I | 4.49 |
| A30H | 4.57 |
| A30P | 2.07 |
| I6L | 4.34 |
| I6A | 4.12 |
| I6W | 4.67 |
| I6R | 0.95 |
| I6K | 0.69 |
| I6T | 3.59 |
| D12S | 4.38 |

| Variant | folding stability dG [kcal/mol] |
| --- | --- |
| D12W | 4.75 |
| D12H | 4.49 |
| D12N | 4.42 |
| K1D | 4.22 |
| K1S | 4.25 |
| K1I | 4.6 |
| K1T | 4.5 |
| K1H | 4.46 |
| K1Y | 4.52 |
| K1G | 4.64 |
| K32S | 4.42 |
| K32I | 4.34 |
| F10W | 4.44 |
| F10D | 2.86 |
| F10P | 2.07 |
| F10G | 3.16 |
| K41Q | 4.02 |
| K41Y | 4.5 |
| K41S | 4.41 |
| K41T | 4.32 |
| K41M | 4.38 |
| K41A | 4.33 |
| K41L | 4.36 |
